# Numbered stars: 1 amine (or outer) side, 2 acyl side, 3 side chain; on linkers, the order of the positions; unused ones are H or OH. Bridge positions count the residues as written; N and C are the ends. Square brackets hold non-standard residues; d marks the D form. * marks the point of attachment. tMeBn(DOTA-PP) = 1,3,5-trimethylbenzylidene, two thioethers to Cys, third CH2 bound to one N of piperazine whose other N bears DOTA, O=C(O)CN1CCN(CC(=O)O)CCN(CC(=O)N2CCN(Cc3cc(C[*:1])cc(C[*:2])c3)CC2)CCN(CC(=O)O)CC1; Ttds = 1,13-diamino-4,7,10-trioxatridecan-succinamic acid, O=C(CCC(=O)[*:2])NCCCOCCOCCOCCCN[*:1]; DOTA = O=C(O)CN1CCN(CC(=O)O)CCN(CC(=O)*)CCN(CC(=O)O)CC1; mXylylene = c1cc(C[*:1])cc(C[*:2])c1; Pentanesulfonyl = CCCCCS(=O)(=O)*; NMeF = CN[C@@H](Cc1ccccc1)C(=O)O; 4Pal = N[C@@H](Cc1ccncc1)C(=O)O; Tic = O=C(O)[C@@H]1Cc2ccccc2CN1; Nle = CCCC[C@H](N)C(=O)O; Hexanoyl = CCCCCC(=O)*
# B1: Pentyl-SO2-[Cys(tMeBn(DOTA-PP))-Pro-Pro-Thr-Gln-Phe-Cys]-Asp-NH2 (peptide)
# peptide: Pentanesulfonyl-CPPTQFCD-NH2
# modifications: linker 1-7 via tMeBn(DOTA-PP)
# SMILES: CCCCCS(=O)(=O)N[C@H]1CSCc2cc(cc(CN3CCN(C(=O)CN4CCN(CC(=O)O)CCN(CC(=O)O)CCN(CC(=O)O)CC4)CC3)c2)CSC[C@@H](C(=O)N[C@@H](CC(=O)O)C(N)=O)NC(=O)[C@H](Cc2ccccc2)NC(=O)[C@H](CCC(N)=O)NC(=O)[C@H]([C@@H](C)O)NC(=O)[C@@H]2CCCN2C(=O)[C@@H]2CCCN2C1=O
# notes: also called 3BP-3692
# B2: Ac-Met-[Cys(3MeBn)-Pro-Pro-Thr-Glu-Phe-Cys]-Asp-His-Mpa-Arg-Asp-NH2 (peptide)
# peptide: Ac-MCPPTEFCDHXRD-NH2
# modifications: linker 2-8 via mXylylene; not fully specified (residue 11); printed as Ac-Met-[Cys(3MeBn)-Pro-Pro-Thr-Glu-Phe-Cys]-Asp-His-Mpa-Arg-Asp-NH2
# notes: also called 3BP-3192
# B3: Ac-Met-[Cys(3MeBn)-Pro-Pro-Thr-Glu-Phe-Cys]-Asp-His-Nmf-Arg-Asp-NH2 (peptide)
# peptide: Ac-MCPPTEFCDH[NMeF]RD-NH2
# modifications: linker 2-8 via mXylylene
# SMILES: CSCC[C@H](NC(C)=O)C(=O)N[C@H]1CSCc2cccc(c2)CSC[C@@H](C(=O)N[C@@H](CC(=O)O)C(=O)N[C@@H](Cc2c[nH]cn2)C(=O)N(C)[C@@H](Cc2ccccc2)C(=O)N[C@@H](CCCNC(=N)N)C(=O)N[C@@H](CC(=O)O)C(N)=O)NC(=O)[C@H](Cc2ccccc2)NC(=O)[C@H](CCC(=O)O)NC(=O)[C@H]([C@@H](C)O)NC(=O)[C@@H]2CCCN2C(=O)[C@@H]2CCCN2C1=O
# notes: also called 3BP-3188
# B4: Ac-Met-[Cys(3MeBn)-Pro-Pro-Thr-Glu-Phe-Cys]-Asp-His-Tic-Arg-Asp-NH2 (peptide)
# peptide: Ac-MCPPTEFCDH[Tic]RD-NH2
# modifications: linker 2-8 via mXylylene
# SMILES: CSCC[C@H](NC(C)=O)C(=O)N[C@H]1CSCc2cccc(c2)CSC[C@@H](C(=O)N[C@@H](CC(=O)O)C(=O)N[C@@H](Cc2c[nH]cn2)C(=O)N2Cc3ccccc3C[C@H]2C(=O)N[C@@H](CCCNC(=N)N)C(=O)N[C@@H](CC(=O)O)C(N)=O)NC(=O)[C@H](Cc2ccccc2)NC(=O)[C@H](CCC(=O)O)NC(=O)[C@H]([C@@H](C)O)NC(=O)[C@@H]2CCCN2C(=O)[C@@H]2CCCN2C1=O
# notes: also called 3BP-3189
# B5: DOTA-Ttds-Nle-[Cys(3MeBn)-Pro-Pro-Thr-Glu-Phe-Cys]-Asp-His-Phe-Arg-Asp-NH2 (peptide)
# peptide: {DOTA}-[Ttds][Nle]CPPTEFCDHFRD-NH2
# modifications: linker 3-9 via mXylylene
# SMILES: CCCC[C@H](NC(=O)CCC(=O)NCCCOCCOCCOCCCNC(=O)CN1CCN(CC(=O)O)CCN(CC(=O)O)CCN(CC(=O)O)CC1)C(=O)N[C@H]1CSCc2cccc(c2)CSC[C@@H](C(=O)N[C@@H](CC(=O)O)C(=O)N[C@@H](Cc2c[nH]cn2)C(=O)N[C@@H](Cc2ccccc2)C(=O)N[C@@H](CCCNC(=N)N)C(=O)N[C@@H](CC(=O)O)C(N)=O)NC(=O)[C@H](Cc2ccccc2)NC(=O)[C@H](CCC(=O)O)NC(=O)[C@H]([C@@H](C)O)NC(=O)[C@@H]2CCCN2C(=O)[C@@H]2CCCN2C1=O
# B6: Ac-met-[Cys(3MeBn)-Pro-Pro-Thr-Glu-Phe-Cys]-Asp-His-Phe-Arg-Asp-NH2 (peptide)
# peptide: Ac-[dM]CPPTEFCDHFRD-NH2
# modifications: linker 2-8 via mXylylene
# SMILES: CSCC[C@@H](NC(C)=O)C(=O)N[C@H]1CSCc2cccc(c2)CSC[C@@H](C(=O)N[C@@H](CC(=O)O)C(=O)N[C@@H](Cc2c[nH]cn2)C(=O)N[C@@H](Cc2ccccc2)C(=O)N[C@@H](CCCNC(=N)N)C(=O)N[C@@H](CC(=O)O)C(N)=O)NC(=O)[C@H](Cc2ccccc2)NC(=O)[C@H](CCC(=O)O)NC(=O)[C@H]([C@@H](C)O)NC(=O)[C@@H]2CCCN2C(=O)[C@@H]2CCCN2C1=O
# notes: also called 3BP-3187
# Molecular target: T1, fibroblast activation protein (FAP) on FAP-expressing human WI-38 fibroblasts (human, UniProt Q12884 1-760)
# T1 construct: also called human FAP
# Test: competitive FACS, WI-38 cells, vs Cy5 tracer m3; A = pIC50 >8.0
row,Binder,pIC50 Category (FACS) [pIC50]
1,B1,> 8
2,B2,> 8
3,B3,> 8
4,"Hexanoyl-CPPTQFCD-NH2 (linker 1-7 via tMeBn(EuDOTA-PP); also: europium complex of DOTA, also called 3BP-3661) [Hex-[Cys(tMeBn(EuDOTA-PP))-Pro-Pro-Thr-Gln-Phe-Cys]-Asp-NH2]",> 8
5,B4,> 8
6,B5,> 8
7,"Ac-MCPPTEFCDH[4Pal]RD-NH2 (linker 2-8 via mXylylene, also called 3BP-3191) [Ac-Met-[Cys(3MeBn)-Pro-Pro-Thr-Glu-Phe-Cys]-Asp-His-Ppa-Arg-Asp-NH2]",> 8
8,B6,> 8

# Molecular target: Recombinant human FAP (R&D systems, #3715-SE) (human, UniProt Q12884 26-760)
# Test: cell-based or functional assay
row,Binder,pIC50 Category (Activity) [pIC50]
1,B1,> 8
2,B2,> 8
3,B3,> 8
4,"Hexanoyl-CPPTQFCD-NH2 (linker 1-7 via tMeBn(EuDOTA-PP); also: europium complex of DOTA, also called 3BP-3661) [Hex-[Cys(tMeBn(EuDOTA-PP))-Pro-Pro-Thr-Gln-Phe-Cys]-Asp-NH2]",> 8
5,B4,> 8
6,B5,> 8
7,"Ac-MCPPTEFCDH[4Pal]RD-NH2 (linker 2-8 via mXylylene, also called 3BP-3191) [Ac-Met-[Cys(3MeBn)-Pro-Pro-Thr-Glu-Phe-Cys]-Asp-His-Ppa-Arg-Asp-NH2]",> 8
8,B6,> 8

# Source: patent publication US20230212549A1 (3B PHARMACEUTICALS, published 2023)
